Data taken from PMC8752837, “Structural basis of BAK activation in mitochondrial apoptosis initiation” (Nature Communications, 2022).
Substitutions are numbered along the chain they refer to. Names and notes keep the numbering of the source.

B1: I81R (3): BAK missense mutant (protein, UniProt Q16611 2-211, looked up, variant I81R)
Bcl-2 homologous …: ASGQGPGPPRQECGEPALPSASEEQVAQDTEEVFRSYVFYRHQQEQEAEGVAAPADPEMVTLPLQPSSTMGQVGRQLAIRGDDINRRYDSEFQTMLQHLQPTAENAYEYFTKIATSLFESGINWGRVVALLGFGYRLALHVYQHGLTGFLGQVTRFVVDFMLHHCIARWIAQRGGWVAALNLGNGPILNVLVVLGVVLLGQFVVRRFFKS
B2: WT BAK: C-terminus truncated recombinant human BAK with C-terminal 6× histidine tag (protein, UniProt Q16611 2-211, looked up)
Bcl-2 homologous …: B1 Bcl-2 homologous … with R80I

Columns and labels:
[1] = system: BCL2allKO HCT116 cells reconstituted with Dox-inducible mC-BAK; assay: Dox-induced cell death by IncuCyte imaging of SYTOX Green uptake (autoactivation); format: cell-based, human; conditions: for AUC (48 hr) of SYTOX Green counts/confluence: mC-BAK BCL2allKO HCT116 + Dox + qVD, average, N = 3
Excerpt: For mammalian cell culture experiments, we cloned the full length human BAK cDNA into pCR 2.1 TOPO vector, mutated BAK as needed, and PCR amplified the BAK gene for cloning into the BamHI and NotI sites of pRETROX mCherry vector for retroviral transduction. Amplification and mutagenesis primers are included in Supplementary Table 4. To test direct BAK activation and BAK autoactivation in cells, we produced cells stably expressing mCherry-human BAK (mC-BAK) ± human BID (BID) on a genetic background devoid of the entire BCL-2 family repertoire (all 17 BCL-2 genes), BCL2allKO HCT116, as described by the Xu Luo laboratory. We expressed WT and mutant mC-BAK using the doxycycline (Dox)-based inducible Tet-On 3G retroviral system from the pRetroX-TRE3G-Puro^R in BCL2allKO HCT116 cells expressing the Tet3G from pRetroX-Tet3G-Blast^R. We selected cells with puromycin (2.5 µg/mL) and blasticidin (2 µg/mL) starting at 2 days after retroviral transduction. To enrich for populations of cells that express mC-BAK, we treated cells with low Dox dose (25 ng/mL) and fluorescence-activated cell sorted (FACS) the mCherry positive cells. We performed the enrichment twice before cell death analysis. One caveat of our cellular system is tagging BAK with N-terminal mCherry, which may affect folding efficiency, degradation, and BAK interactome.
(§1) We seeded cells in 24-well (100,000 cells/well), 96-well (15,000 cells/well), or 384-well (10,000 cells/well) plates coated with 10 µg/mL fibronectin. After ≥24 h of attachment and recovery, we induced cell death with Dox (up to 1000 ng/mL) and monitored SYTOX Green (25 nM) uptake by Incucyte imaging. This dye marks cells with compromised plasma membrane integrity. mC-BAK expressed before 24 h, which coincided with detectable cell death. We monitored Incucyte imaging for up to 48 h, followed by endpoint FACS analysis to measure the extent of cell death based on SYTOX Green positive cells on FACSCalibur systems (BD Biosciences). As expected, cells with low mCherry fluorescence were refractory to cell death.

[2] = system: BCL2allKO HCT116 cells reconstituted with mC-BAK; assay: Endpoint FACS analysis of SYTOX Green positive cells; format: cell-based, human; conditions: average, N = 3
Description: as §1

[3] = system: BAK; assay: Dye-based thermal shift assay (SYPRO Orange); format: physicochemical, human; conditions: rebuttal
Description: To control for effect of mutations on protein stability, which may confound interpretation of impairment in BAK autoactivation, we measured the Tm of BAK WT and mutants (Supplementary Fig. 3f).
(§2) We carried out TSA in 20 µL reactions in 384-well PCR plate (Cat# AB1384, Thermo Fisher Scientific) in 20 mM HEPES pH 7.0, 150 mM NaCl, 2 mM DTT), SYPRO ^TM Orange (5×) and 0.25 mg/mL purified BAK. To remove air bubbles we sealed assay plates with MicroAmp Optical Adhesive, incubated them for 2–5 min, and centrifuged them (1000 × rpm). We subjected the assay plates to 25–99 °C thermal gradient with 1°/minute increment and recorded fluorescence using Applied Biosystems Quant Studio 5. We performed three experiments in quadruplicate for each sample. We performed data processing and visualization in RISE, and final data analysis in Excel and GraphPad Prism. We also carried out dye-free TSA using capillary-based Prometheus NT.48 Nano Differential Scanning Fluorimetry (Nanotemper) in the same buffer conditions with 15 μM BAK. Melting temperature (Tm) values were obtained from the first derivative of melting scans.

[4] = system: BAK; assay: Dye-free nano Differential Scanning Fluorimetry thermal shift assay; format: physicochemical, human; conditions: without DTT; mean of N = 3; Suppl. Fig. 7h
Description: Through rational design and structural analysis, we expand the list of activated BAK complexes, supporting requisite BH3 ligand-induced destabilization of helix α1 (see below).
as §2

[5] = Liposome permeabilization by WT and mutant BAK proteins (autoactivation, or direct activation by BID BH3); format: biochemical; conditions: no BH3 peptide; liposomes with […] DGS-NTA(Ni); Fig. 1a
Description: Human BAK-∆TM-His6 (BAK)[26] spontaneously permeabilizes liposomes above a certain dose (>100 nM, Fig. 1a). In these dye-release assays[43]–[46], BAK is recruited via His-tag to liposomes containing 2.5 µM of the lipid 1,2-dioleoyl-sn-glycero-3-[(N-(5-amino-1-carboxypentyl)iminodiacetic acid)succinyl] (nickel salt), DGS-NTA(Ni).
To probe autoactivation with full-length BAK, we mutated hydrophobic residues at positions (0)−(6) of the BH3 to alanine or arginine, and D83, which forms the conserved salt bridge (s) with R127, to alanine (Fig. 2a). The BH3 residues participate in autoactivation from the ligand side [hydrophobic positions (0)–(5) and D83(s)] and also from the receptor groove side [hydrophobic positions (3)–(5)] (Fig. 2a). Thus, substitutions at positions (3)–(5) should affect receptor and ligand activities and are predicted to impact BAK activation more severely than mutations of positions (0)–(2), which affect only ligand activity. […] In contrast, almost all (2)–(5) and (s) missense mutants were considerably impaired in autoactivation (Fig. 2b and Supplementary Fig. 3a). […] Despite impairment in autoactivation, all missense mutants were directly activated by BID BH3 peptide, although they induced lower level of permeabilization compared to WT BAK (Fig. 2b and Supplementary Fig. 3a).
We performed liposome permeabilization assays as previously described[43]–[46]. […] (nickel salt) [DGS NTA(Ni), 2.5 μM final concentration in each assay] (Avanti Polar Lipids). We prepared 12.5 mM fluorophore; 8-aminonaphthalene-1, 3, 6-trisulfonic acid, disodium salt (ANTS) and 45 mM quencher; p-xylene-bis-pyridiniumbromide (DPX) in LUV buffer (10 mM HEPES pH 6.8, 200 mM KCl and 5 mM MgCl2). We mixed the lipid film in ANTS/DPX solution by vortexing and sonication (~15 min) followed by extrusion through polycarbonate membrane of 2 μm pore size (Avanti Polar lipids) to generate homogenous large unilamellar vesicles (LUVs). We separated LUVs from free ANTS/DPX by S500 size exclusion chromatography and stored them at 4 °C in the dark. We prepared peptide and protein dilutions in 96-well black flat bottom plates (Costar) kept on ice. ANTS release from permeabilized liposomes causes an increase in fluorescence, which we monitored at 37 °C for 90 min using a CLARIOSTAR microplate reader (BMG Labtech) set at excitation and emission wavelengths of 360 and 530 nm, respectively. We normalized the data relative to maximum and minimum fluorescence induced by 3% CHAPS and buffer controls, respectively. We quantified liposome permabilization by integrating area under curve (AUC) of normalized traces based on the Simpson’s equation, and analyzed that data in Excel and GraphPad Prism. AUC measurements reflect the kinetic and extent of liposome permeabilization and provide quantitative means for comparison between different experimental conditions (e.g., BAK mutants with gross or partial variation in activity). Variability in permeabilization of different liposomes is common and our analyses compare among conditions investigated with the same liposomes. Although the absolute permeabilization values may differ, the trends for the same conditions are always very similar between different liposomes.

Molecule | Dox-induced cell death ([1]; IncuCyte SYTOX Green up to 48 h) | AUC (48 hr) of SYTOX Green counts/confluence ([1]; Dox 100 ng/mL) | AUC (48 hr) of SYTOX Green counts/confluence ([1]; Dox 1000 ng/mL) | flow cytometry SYTOX Green counts/confluence (48 hr) ([2]; Dox 100 ng/mL) | flow cytometry SYTOX Green counts/confluence (48 hr) ([2]; Dox 1000 ng/mL) | difference in Tm compared to WT [3] | Melting temperature for 3 exps, Mean [4] | BAK dose above which liposomes are spontaneously permeabilized [5]
B1 | inactive irrespective of Dox dose | 331.061 | 348.847 | 2.517 | 4.75 | < 2 °C | – | –
B2 | – | – | – | – | – | – | 77 °C | > 100 nM
